The assay has as its target MAP1B light chain 1, C-terminal myc-tag, expressed in COS7 cells (UniProt P15205).

Rac1-GTP pulled down by GST-PAK1 CRIB domain from lysates of COS7 cells co-expressing Tiam1 (C1199 HA) and myc-tagged LC1, relative to total Rac1 data for 1 substance are collected here from paper PMC3531375.

Chain of UniProt P15205 (P15205 2210-2459): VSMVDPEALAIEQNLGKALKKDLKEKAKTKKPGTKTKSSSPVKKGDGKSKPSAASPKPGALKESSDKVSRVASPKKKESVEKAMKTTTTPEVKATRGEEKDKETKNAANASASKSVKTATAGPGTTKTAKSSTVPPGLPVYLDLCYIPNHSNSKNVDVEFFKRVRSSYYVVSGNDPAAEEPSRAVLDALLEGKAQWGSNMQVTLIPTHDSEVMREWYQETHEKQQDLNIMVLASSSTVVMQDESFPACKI

In turn, “N-terminal truncated Tiam1 (C1199), C-terminal HA-tag (domain or fragment)” yielded a Rac1-GTP pulled down by GST-PAK1 CRIB domain from lysates of COS7 cells co-expressing Tiam1 (C1199 HA) and myc-tagged LC1, relative to total Rac1 of 2 fold.
